Experiments:
[1] = target: T1, IL-18 receptor (IL-18Rα and IL-18Rβ) on HEK-Blue IL-18 cells (UniProt Q13478); assay: cell-based or functional assay
T1 sequence (looked up) 1: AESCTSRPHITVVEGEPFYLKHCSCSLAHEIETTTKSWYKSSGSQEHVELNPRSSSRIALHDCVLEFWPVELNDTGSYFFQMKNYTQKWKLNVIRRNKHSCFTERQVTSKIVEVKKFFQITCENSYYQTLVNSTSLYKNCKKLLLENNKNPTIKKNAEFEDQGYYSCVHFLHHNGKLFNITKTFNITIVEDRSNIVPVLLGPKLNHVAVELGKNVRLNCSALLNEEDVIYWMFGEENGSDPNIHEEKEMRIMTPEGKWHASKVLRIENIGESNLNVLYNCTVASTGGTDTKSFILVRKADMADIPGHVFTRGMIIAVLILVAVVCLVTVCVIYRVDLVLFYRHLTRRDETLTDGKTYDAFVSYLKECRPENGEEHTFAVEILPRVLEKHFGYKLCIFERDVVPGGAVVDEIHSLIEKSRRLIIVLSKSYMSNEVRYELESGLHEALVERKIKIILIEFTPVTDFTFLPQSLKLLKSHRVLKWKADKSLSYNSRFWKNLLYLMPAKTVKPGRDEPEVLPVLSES
T1 sequence (looked up) 2: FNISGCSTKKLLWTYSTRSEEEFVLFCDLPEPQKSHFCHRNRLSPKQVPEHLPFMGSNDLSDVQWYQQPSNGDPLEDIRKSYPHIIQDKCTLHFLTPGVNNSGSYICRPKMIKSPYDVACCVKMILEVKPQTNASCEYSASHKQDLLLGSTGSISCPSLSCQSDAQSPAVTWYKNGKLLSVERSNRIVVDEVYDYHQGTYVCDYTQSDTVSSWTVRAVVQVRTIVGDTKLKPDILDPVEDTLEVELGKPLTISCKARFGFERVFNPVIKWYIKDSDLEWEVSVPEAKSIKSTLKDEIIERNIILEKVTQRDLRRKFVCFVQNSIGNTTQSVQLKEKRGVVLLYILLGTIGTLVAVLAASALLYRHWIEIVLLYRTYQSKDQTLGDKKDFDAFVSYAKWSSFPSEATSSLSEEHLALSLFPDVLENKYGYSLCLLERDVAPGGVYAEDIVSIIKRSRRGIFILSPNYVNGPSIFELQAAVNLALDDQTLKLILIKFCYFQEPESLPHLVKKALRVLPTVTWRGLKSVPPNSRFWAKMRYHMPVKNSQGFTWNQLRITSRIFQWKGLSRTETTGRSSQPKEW

[2] = target: T2, IL-18 receptor (IL-18Rα/IL-18Rβ) on human PBMCs (human) (UniProt Q13478); assay: cell-based or functional assay
T2 sequence (looked up) 1: T1 sequence (looked up) 1
T2 sequence (looked up) 2: T1 sequence (looked up) 2

Human IL-18, sequence (Q14116 37-193 limits assumed): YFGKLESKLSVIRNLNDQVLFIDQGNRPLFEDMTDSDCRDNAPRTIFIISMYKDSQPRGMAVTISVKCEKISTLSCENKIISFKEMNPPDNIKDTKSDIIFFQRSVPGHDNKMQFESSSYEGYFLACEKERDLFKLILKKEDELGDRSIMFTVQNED

HEK-Blue: Abs 405 at 100 nM [1]: 2.6 absorbance
HEK-Blue: Fold over background [1]: 14.4 fold
Calculated maximum induction of IFN-γ after 24 hours, donor 1 [2]: 42000
Calculated maximum induction of IFN-γ after 24 hours, donor 2 [2]: 5300
Calculated maximum induction of IFN-γ after 24 hours, donor 3 [2]: 89000
Calculated maximum induction of IFN-γ after 24 hours, donor 4 [2]: 69000
Calculated maximum induction of IFN-γ after 24 hours, donor 5 [2]: 150000
Calculated maximum induction of IFN-γ after 24 hours, donor 6 [2]: 28000
Substance: Human IL-18 (from UniProt Q14116 37-193) (ligand)
